Results on 34 variants are retold here after the RNAGym collection of RNA variant scans (doi:10.1093/nar/gkz1192).

First the molecules themselves.
B1: CPEB3 Ribozyme (parent)
chain: UAACAGGGGGCCACAGCAGAAGCGUUCACGUCGCAGCCCCUGUCAGAUUCUGGUGAAUCUGCGAAUUCUGCUGUAUAUCUC

The variants in the series derive from B1. Kind of series: self-cleavage, relative activity (ratio to wild type); higher = more cleavage; in vitro, sequencing. The essentials: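 Relative activity compares each variant's cleaved/total read fraction with that of the unmutated ribozyme. To get these fractions, barcoded CPEB3 ribozyme libraries from rounds of error-prone PCR were transcribed with T7 RNA polymerase for 5 hours at 37°C and then given 15 min of DNase I treatment before EDTA was added. The RNAs were reverse transcribed with template switching and sequenced on Illumina, and DNA sequencing linked barcodes to variants. A minimum of 5 reads applied, and three batches were averaged.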
For the variant UAACAGGGGUCCACAGCAGAAGCGUUCACGUCGCAGACCCUGUCAGAUUCUGGUGAAUCUGCGAAUUCUGCUGUAUAUCUC [G10U C37A], the self-cleavage is 0.72.

Consider UAACAGGGGGACACUGCAGAAGCGUUCACGUCGCAGCCCCUGUCAGAUUCUGGUGAAUCUGCGAAUUCUGCUGUAUAUCUC [C11A A15U], for which the self-cleavage stood at 0.37.

Turning to UAACAGGGGGACACGGCAGAAGCGUUCACGUCGCAGCCCCUGUCAGAUUCUGGUGAAUCUGCGAAUUCUGCUGUAUAUCUC [C11A A15G], the self-cleavage is 0.21.

UAACAGGGGGACACAGCAGAGGCGUUCACGUCGCAGCCCCUGUCAGAUUCUGGUGAAUCUGCGAAUUCUGCUGUAUAUCUC [C11A A21G]: the self-cleavage came to 0.24.

For UAACAGGGGUCCACAGCAGAAGCGUUCACGUCGCAGCCCCUGUCAGAUUCUGGUGAUUCUGCGAAUUCUGCUGUAUAUCUC [G10U A57U], the self-cleavage was 0.07.

UAACAGGGGUCCACAGCAGAAGCGUUCACGUCGCAGCCCCUGUCAGAUUCUGGUGAGUCUGCGAAUUCUGCUGUAUAUCUC [G10U A57G]: the self-cleavage is 0.23.

Turning to UAACAGGGGUCCACAGCAGAAGCGUUCACGUCGCAGCCCCUGUCAGAUUCUGGUGGAUCUGCGAAUUCUGCUGUAUAUCUC [G10U A56G], the self-cleavage worked out at 0.16.

Consider UAACAGGGGUCCACAGCAGAAGCGUUCACGUCGCAGCCCCUGUCAGAUUCUGGUGUAUCUGCGAAUUCUGCUGUAUAUCUC [G10U A56U], for which the self-cleavage is 0.08.

As to UAACAGGGGUCCACAGCAGAAGCGUUCACGUCGCAGCCCCUGUCAGAUUCUGGUGAAUCUGCGAAUCCUGCUGUAUAUCUC [G10U U67C], the self-cleavage came to 0.12.

On to UAACAGGGGUCCACAGCAGAAGCGUUCACGUCGCAGCCCCUGUCAGAUUCUGGUGAAUCUGCGUAUUCUGCUGUAUAUCUC [G10U A64U], for which the self-cleavage amounted to 0.35.

Take UAACAGGGGUCCACAGCAGAAGCGUUCACGUCGCAGCCCCUGUCAGAUUCUGGUGAAUCUGCGGAUUCUGCUGUAUAUCUC [G10U A64G]: the self-cleavage amounted to 0.07.

Consider UAACAGGGGUCCACAGCAGAAGCGUUCACGUCGCAGCCCCUGUCAGAUUCUGUUGAAUCUGCGAAUUCUGCUGUAUAUCUC [G10U G53U], for which the self-cleavage came to 0.24.

Turning to UAACAGGGGGACACAGCAGAAGCGUUCACGUCGCAGCCCCUGUCAGAUUCUGGUGAAUCUGCGAAUUCUGCUGUAUAUCUC [C11A], the self-cleavage came to 0.37.

As to UAACAGGGGUCCACAGCAGAAGCGUUCACGUCGCAGCCCCUGUCAGAUUCUGGCGAAUCUGCGAAUUCUGCUGUAUAUCUC [G10U U54C], the self-cleavage is 0.34.

For the variant UAACAGGGGUCCACAGCAGAAGCGUUCACGUCGCAGCCCCUGUCAGAUUUUGGUGAAUCUGCGAAUUCUGCUGUAUAUCUC [G10U C50U], the self-cleavage was determined as 0.17.

As for UAACAGGGGUCCACAGCAGAAGCGUUCACGUCGCAGCCCCAGUCAGAUUCUGGUGAAUCUGCGAAUUCUGCUGUAUAUCUC [G10U U41A], the self-cleavage came out at 0.22.

Take UAACAGGGGUCCACAGCAGAAGCGUUCACGUCGCAGCCCCUGUCAGAUUCUGGUGAAUCUGCGAGUUCUGCUGUAUAUCUC [G10U A65G]: the self-cleavage was found to be 0.19.

With UAACAGGGGUCCACAGCAGAAGCGUUCACGUCGCAGCCCCUGUCAGAUGCUGGUGAAUCUGCGAAUUCUGCUGUAUAUCUC [G10U U49G], the self-cleavage was 0.14.

In the case of UAACAGGGGUCCACAGCAGAAGCGUUCACGUCGCAGCCCCUGUCAGAUCCUGGUGAAUCUGCGAAUUCUGCUGUAUAUCUC [G10U U49C], the self-cleavage is 0.24.

On to UAACAGGGGUCCACAGCAGAAGCGUUCACGUCGCAGCCCCUGUCAGAUACUGGUGAAUCUGCGAAUUCUGCUGUAUAUCUC [G10U U49A], for which the self-cleavage was 0.31.

For the variant UAACAGGGGGACACAGCAGAAGCGUUCACGUCGCAGCCCCUGUCAGUUUCUGGUGAAUCUGCGAAUUCUGCUGUAUAUCUC [C11A A47U], the self-cleavage was 0.27.

UAACAGGGGGACACAGCAGAAGCGUUCACGUCGCAGCCCCUGUCAGGUUCUGGUGAAUCUGCGAAUUCUGCUGUAUAUCUC [C11A A47G]: the self-cleavage is 0.51.

With UAACAGGGGUCCACAGCAGAAGCGUUCACGUUGCAGCCCCUGUCAGAUUCUGGUGAAUCUGCGAAUUCUGCUGUAUAUCUC [G10U C32U], the self-cleavage was found to be 0.21.

Consider UAACAGGGGGACACAGCCGAAGCGUUCACGUCGCAGCCCCUGUCAGAUUCUGGUGAAUCUGCGAAUUCUGCUGUAUAUCUC [C11A A18C], for which the self-cleavage was 0.4.

As for UAACAGGGGGACACAGCGGAAGCGUUCACGUCGCAGCCCCUGUCAGAUUCUGGUGAAUCUGCGAAUUCUGCUGUAUAUCUC [C11A A18G], the self-cleavage stood at 0.28.

For the variant UAACAGGGGGACACAGCUGAAGCGUUCACGUCGCAGCCCCUGUCAGAUUCUGGUGAAUCUGCGAAUUCUGCUGUAUAUCUC [C11A A18U], the self-cleavage was determined as 0.43.

Regarding UAACAGGGGGACACAGCAGAAGCGUUCACGUCGCAGCCCCUGUCGGAUUCUGGUGAAUCUGCGAAUUCUGCUGUAUAUCUC [C11A A45G], the self-cleavage was found to be 0.41.

Take UAACAGGGGUCCACAGCAGAAGCGUUCACGUCGCAGCCCCUGUCAGAUUCUGGUGAAUCUGCGAAUUCCGCUGUAUAUCUC [G10U U69C]: the self-cleavage stood at 0.07.

With UAACAGGGGUCCACAGCAGAAGCGUUCACGUCGCAGCCCCUGUCAGAUUCUGGUGAAUCUGCGAAUUCAGCUGUAUAUCUC [G10U U69A], the self-cleavage came to 0.18.

Take UAACAGGGGUCCACAGCAGAAGCGUUCACGUCGCAGCCCCUGUCAGAUUCUGGUGAAUCUGCGAAUUCUGCUGUAUUUCUC [G10U A77U]: the self-cleavage was 0.07.

As to UAACAGGGGUCCACAGCAGAAGCGUUCACGUCGCAGCCCCUGUCAGAUUCUGGUGAAUCUGCGAAUUCUGCUGUAUGUCUC [G10U A77G], the self-cleavage was determined as 0.35.

In the case of UAACAGGGGUCCACAGCAGAAGCGUUCACGUCGCAGCCCCUGUCCGAUUCUGGUGAAUCUGCGAAUUCUGCUGUAUAUCUC [G10U A45C], the self-cleavage came to 0.14.

On to UAACAGGGGGACACAGCAGAAGCGUUCACGUCGCAGCCCCUGUCAGAUUCUGGUGAAUCUGCGAGUUCUGCUGUAUAUCUC [C11A A65G], for which the self-cleavage amounted to 0.26.

Consider UAACAGGGGGACACAGCAGAAGCGUUCACGUCGCAGCCCCUGUCAGAUUCUGGUGAAUCUGCGAUUUCUGCUGUAUAUCUC [C11A A65U], for which the self-cleavage was found to be 0.18.
